Here are results for 1 molecule from paper PMC8321654, “Heterogeneous nuclear ribonucleoprotein E1 binds polycytosine DNA and monitors genome integrity”.

In the series the target is GST-hnRNP E1 (UniProt Q15365 1-356). The experiment in a line: EMSA; 25 mM Tris-HCl pH 7.6, 1 mM EDTA, 2% glycerol, 10 mM beta-ME, 50 ug/ml BSA, with or without 1.5 ng denatured E. coli DNA; 20 fmol probe in 50 ul; RT 15 min; 8-10% PAGE in 1x TBE. The note with it: protein: recombinant; tags: GST; label: 5'-32P. For orientation: Mobility shift assays separate free from complexed probe on a gel.
Chain of GST-hnRNP E1 (Q15365 whole entry): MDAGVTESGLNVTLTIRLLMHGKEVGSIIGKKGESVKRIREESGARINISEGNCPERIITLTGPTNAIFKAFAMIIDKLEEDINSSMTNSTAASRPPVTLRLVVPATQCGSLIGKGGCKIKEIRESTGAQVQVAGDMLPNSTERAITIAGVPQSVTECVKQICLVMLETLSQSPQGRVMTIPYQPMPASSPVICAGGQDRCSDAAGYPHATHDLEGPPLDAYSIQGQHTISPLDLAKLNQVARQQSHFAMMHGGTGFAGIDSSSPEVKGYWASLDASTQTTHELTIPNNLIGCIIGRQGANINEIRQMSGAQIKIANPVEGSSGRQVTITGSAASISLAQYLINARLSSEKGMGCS

In the case of AAUUGCUACCCAAUGCCUGGCCCAAGGGCAUUCCCAAAGCUUA (ssRNA) [BAT RNA consensus (43 nt)], the binding signal is 11 fold molar excess protein for 50% shift.
